Experimental data: paper PMC8501228 (Cell Reports, 2021)

Target: SARS-CoV-2 Spike S1, 6x His-tagged recombinant protein (16-685 aa, YP_009724390.1) (SARS-CoV-2, UniProt P0DTC2 16-685)
Assay: ELISA

B1: galectin-8 (LGALS8) recombinant protein (1-317 aa, AAF19370.1) (natural protein)
chain: MMLSLNNLQNIIYNPVIPFVGTIPDQLDPGTLIVIRGHVPSDADRFQVDLQNGSSMKPRADVAFHFNPRFKRAGCIVCNTLINEKWGREEITYDTPFKREKSFEIVIMVLKDKFQVAVNGKHTLLYGHRIGPEKIDTLGIYGKVNIHSIGFSFSSDLQSTQASSLELTEISRENVPKSGTPQLRLPFAARLNTPMGPGRTVVVKGEVNANAKSFNVDLLAGKSKDIALHLNPRLNIKAFVRNSFLQESWGEEERNITSFPFSPGMYFEMIIYCDVREFKVAVNGVHSLEYKHRFKELSSIDTLEINGDIHLLEVRSW
- binding result: binds
